In assay [1] the target is T1, recombinant Fc-TrkB antigen (human) (human, UniProt Q16620 32-430, limits assumed).
T1 construct: Biotinylated for the ForteBio assays; also called Fc-hTrkB; human Fc-TrkB; not shown: Fc part
In words: BLI (ForteBio Octet), biotinylated Fc-TrkB on streptavidin sensors, IgG at 1E-8 M. As for the experimental part: (§1) The binding kinetics of IgGs and Fab fragments were analyzed using a ForteBio Octet biosensor. Recombinant Fc-TrkB antigen was biotinylated using the EZ-link biotinylation kit (Pierce) according to the manufacturer's methods. The antigen was then coupled to streptavidin-coated sensors (ForteBio). Fab binding was monitored in real time using bio-layer interferometry analysis and software provided by the manufacturer. Affinities were calculated from the determined association and dissociation constants.
IgGs with human V-segments were also prepared from transient transfections of CHO cells. IgG preparations were purified and further characterized by kinetic comparison with the reference IgG A10F18.2. Binding kinetics for two of the IgGs with human V-segments were analyzed using a ForteBio Octet system for real-time label-free monitoring of protein-protein interactions.
A general note: BLI is a label-free optical method that tracks binding on a fibre tip over time.

Assay [2] concerns the target T1, recombinant Fc-TrkB antigen (human). In words: blocking ELISA on coated Fc-TrkB; blocked molecule: Fab TR151-1 at 50 nM, detected with anti-human kappa-HRP [upper panel]. A general note: An ELISA detects its analyte on a solid surface through an enzyme-linked reagent.
For assay [3] the target is unchanged. In words: blocking ELISA on coated Fc-TrkB; blocked molecule: Fab TR3-1 at 50 nM (two replicate series), detected with anti-human kappa-HRP [upper panel].
Assay [4] addresses TrkB on rat intestinal epithelial (RIE)-TrkB cells. In words: cell-based or functional assay.
The target in assay [5] is T2, TrkA-Fc fusion protein (human, UniProt P04629-2 34-407, limits assumed).
T2 construct: not shown: Fc part
Briefly: ELISA on Trk-hFc fusion proteins, goat anti-human Fab-HRP detection [panel C]. The protocol:
(§2) FIG. 9A-D illustrate ELISA assays showing specific binding of NVP-LFD253, NVP-LFD254, NVP-LFC325 and NVP-LFC327 to human TrkB-Fc fusion protein but not to human […] or TrkC-Fc fusion proteins. Purified IgG at 2 μg/ml was evaluated for specificity by examining its interaction with three different Trk family members (TrkA, TrkB and TrkC). Secondary Ab are replicates that were blocked and treated with only the goat-anti-human Fab-HRP detection Ab.
(§3) IgG with human V-segments (e.g., NVP-LFD253, NVP-LFD254, NVP-LFC325, and NVP-LFC327) bind specifically to TrkB but not to TrkA or TrkC. Purified IgG antibodies at 2 μg/ml were evaluated for specificity by examining its interaction with three different Trk family members (TrkA, TrkB and TrkC). Secondary Ab are replicates that were blocked and treated with only the goat-anti-human Fab-HRP detection Ab. As shown in FIG. 9A-D, none of LFD253, LFD254, LFC325 or LFC327 bind to either of these related Trk family receptors.

The target of assay [6] is T3, human TrkC-Fc fusion protein (human, UniProt Q16288 32-429, limits assumed).
T3 construct: not shown: Fc part
The assay is described as above. As for the experimental part:
as §2, §3

The target of assay [7] is T1, recombinant Fc-TrkB antigen (human). In words: SPR (Biacore S51), Fc-hTrkB amine-coupled to CM-5 chip, IgG in flow, global 1:1 Langmuir fit. As for the experimental part: Binding studies on the improved antibodies were performed by immobilizing Fc-hTrkB onto a Series S CM-5 Biacore sensor chip (certified) (Biacore #BR-1005-30). Covalent binding of the Fc-fusion protein was done with the ‘Amine Coupling Kit’ (Biacore #BR-1000-50). The Fc-Fusion protein was attached to the EDC-activated dextran surface at 5 μg/ml in 10 mM sodium acetate, pH 4.5 (Biacore #BR-1003-50) at a flow rate of 10 μL/min
A range of concentrations of improved antibodies were flowed over the Fc-TrkB captured chip in PBS plus 100 mM NaCl, 0.005% P20 (Biacore #BR-1000-54). The resulting sensorgrams were analyzed using the Biacore S51 Evaluation Software. Data from all concentrations was fitted globally to a 1:1 Langmuir model.
Although this antibody is bivalent, the binding was treated as a 1:1 event.
(In general: Surface plasmon resonance follows binding to a sensor surface in real time, without labels.)

The target is the same in assay [8]. In words: BLI (ForteBio Octet), biotinylated Fc-TrkB on streptavidin sensors, Fab at 1E-7 M. As for the experimental part:
as §1
(§4) Fabs with human V-segments were isolated from colony-lift binding assays and confirmed by antigen-binding ELISA. The Fab clones showing strong positive signals in antigen-binding ELISA were purified and further characterized by kinetic comparison with the reference Fab TR3-1. Binding kinetics were analyzed using a ForteBio Octet system for real-time label-free monitoring of protein-protein interactions.

Assay [9] has the same target. The assay is described as above. As for the experimental part:
as §1, §4
This is another data set of the same source.

The target of assay [10] is T2, TrkA-Fc fusion protein. In words: ELISA on Trk-hFc fusion proteins, goat anti-human Fab-HRP detection [panel A]. The protocol: as §2, §3
Assay [11] addresses T3, human TrkC-Fc fusion protein. The assay is described as above. The protocol: as §2, §3
Assay [12] deals with T2, TrkA-Fc fusion protein. In words: ELISA on Trk-hFc fusion proteins, goat anti-human Fab-HRP detection [panel B]. The protocol: as §2, §3
Assay [13] has as its target T3, human TrkC-Fc fusion protein. Described as above. The protocol: as §2, §3

“And” between values parts separate entries of the source, which are not always exact repeats. Identical values can stand only once.

B1: A10F18.2 IgG (antibody, V domains shown)
VH: QVQLQQSGAELVRPGASVTLSCKASGYTFTDYEMHWVKQTPVHGLEWIGTIDPETAGTAYNQKFKGKAILTAGKSSSTAYMELRSLTSEDSAVYYCTGVTTWFAYWGQGTLVTVSA
VL: DVVMTQTPLSLPVSLGDQASISCRSSQSLVHSNGNTYLHWYLQKPGQSPNLLIYKVSNRFSGVPDRFSGSGSGTDFTLKISRVEAEDLGVYFCSQGTHVPYTFGGGTKLEIKR
By Kd is commonly meant the free concentration of one partner at which half of the binding sites on the other are occupied at equilibrium, for simple one-to-one binding. As usually defined, the koff is the first-order rate constant of dissociation. For orientation: kon means the second-order rate constant of association. As for B1, in assay [1], the Kd is 0.0379 nM and 0.0477 nM; the koff was 1.44e-05 s⁻¹ and 1.89e-05 s⁻¹; the on-rate (kon) is 379000 M⁻¹ s⁻¹ and 396000 M⁻¹ s⁻¹. In addition, the “IC50 (read off the curve)” value in [2] is ~5 nM. For the same molecule, the “IC50 (read off the curve)” value in [3] was ~6 nM.

B2: NVP-LFC325 (antibody, human IgG1, V domains shown)
VH: QVQLVQSGAEVKKPGASVKVSCKASGYTFTAYDMHWVRQAPGQGLEWMGWIDPNSGGTRYAQKFQGRVTMTRDTSISTAYMELSRLTSDDTAVYYCTGVTTWFAYWGQGTLVTVSS
VL: DIVMTQTPLSLPVTLGQPASISCRSSQSLLHSNGNTYLNWYQQTPGQPPRLLIYKISNRFSGVPDRFSGSGAGTDFTLKISRVEAEDVGVYYCMQGTHVPYTFGQGKLEIK
notes: IgG with human IgG1 constant region and human kappa constant region, from transiently transfected CHO cells; also called TR127 Vh & TR119 Vk
Consider B2, for which the “EC50, anoikis assay on RIE-TrkB cells” value in [4] is 41.8 ng/ml and 280 pM. Moreover, in assay [1], the Kd was determined as 0.0335 nM, the koff is 1.52e-05 s⁻¹ and the association rate constant (kon) amounted to 453000 M⁻¹ s⁻¹. Moreover, the binding result with TrkA-Fc fusion protein [5] was “no binding (tested: 2 ug/ml)”. The binding result in assay [6] was “no binding (tested: 2 ug/ml)”. For the same molecule, in assay [7], the Kd turned out to be 0.114 nM, the koff amounted to 4.85e-05 s⁻¹ and the kon was ~425000 M⁻¹ s⁻¹.

B3: Fab TR135-8 (Fab, V domains shown)
VH: QVQLVQSGAEVKKPGASVKVSCKASGYTFTAYDMHWVRQAPGQGLEWMGWIDPNSGGTRYAQKFQGRVTMTRDTSISTAYMELSRLTSDDTAVYYCTGVTTWFAYWGQGTLVTVSS
VL: MDVVMTQSPLSLPVTLGQPASISCRSSQSLVHSNGNTYLNWYQQKPGQPPRLLIYKISNRFSGVPDRFSGSGAGTDFTLKISRVEAEDVGVYYCMQGTHEPYTFGQGKLEIK
notes: Fab with human V-segments, expressed in E. coli; detected with anti-human kappa
B3: in assay [8], the Kd was found to be 32.3 nM, the koff was determined as 0.00439 s⁻¹ and the kon was determined as 136000 M⁻¹ s⁻¹. In assay [9], the Kd worked out at 31.9 nM, the koff came out at 0.00458 s⁻¹ and the kon was 144000 M⁻¹ s⁻¹.

B4: Fab TR134-4 (Fab, V domains shown)
VH: QVQLVQSGAEVKKPGASVKVSCKASGYTFTAYDMHWVRQAPGQGLEWMGWIDPNSGGTRYAQKFQGRVTMTRDTSISTAYMELSRLTSDDTAVYYCTGVTTWFAYWGQGTLVTVSS
VL: MDVVMTQSPLSLPVTLGQPASISCRSSQSLLHSNGNTYLNWYQQTPGQPPRLLIYKISNRFSGVPDRFSGSGAGTDFTLKISRVEAEDVGVYYCMQGTHEPYTFGQGKLEIK
notes: Fab with human V-segments, expressed in E. coli
Turning to B4, in assay [9], the Kd amounted to 35.6 nM, the dissociation rate constant (koff) was determined as 0.00422 s⁻¹ and the kon turned out to be 118000 M⁻¹ s⁻¹.

B5: NVP-LFD253 (antibody, human IgG1, V domains shown)
VH: QVQLVQSGAEVKKPGASVKVSCKASGYTFTAYDMHWVRQAPGQGLEWMGWIDPNSGGTRYAQKFQGRVTMTRDTSISTAYMELSRLTSDDTAVYYCTGVTTWFAYWGQGTLVTVSS
VL: DIVMTQTPLSLPVTLGQPASISCRSSQSLVHSNGNTYLSWLQQRPGQPPRLLIYKISNRFSGVPDRFSGSGAGTDFTLKISRVEAEDVGVYYCMQGTHEPYTFGQGKLEIK
notes: IgG with human IgG1 constant region and human kappa constant region, from transiently transfected CHO cells; also called TR127 Vh & TR137 Vk
As to B5, the “EC50, anoikis assay on RIE-TrkB cells” value in assay [4] was 4.1 ng/ml and 28 pM. For the same molecule, the binding result in the assay with TrkA-Fc fusion protein [10] was “no binding (tested: 2 ug/ml)”. In addition, the binding result in [11] is given as “no binding (tested: 2 ug/ml)”. In addition, in assay [7], the Kd came out at 0.165 nM, the off-rate constant (koff) was 3.25e-05 s⁻¹ and the kon amounted to 197000 M⁻¹ s⁻¹.

B6: Fab TR151-1 (Fab, V domains shown)
VH: QVQLVQSGAEVKKPGASVKVSCKASGYTFTAYDMHWVRQAPGQGLEWMGWIDPNSGGTRYAQKFQGRVTMTRDTSISTAYMELSRLTSDDTAVYYCAGVTSWFAYWGQGTLVTVSS
VL: MDVVMTQSPLSLPVTLGQPASISCRSSQSLVHSNGNTYLSWLQQRPGQPPRLLIYKISNRFSGVPDRFSGSGAGTDFTLKISRVEAEDVGVYYCMQGTHEPYTFGQGKLEIK
notes: as for B4
Consider B6, for which, in assay [8], the Kd was found to be 18.6 nM, the koff was 0.00395 s⁻¹ and the kon stood at 213000 M⁻¹ s⁻¹.

B7: NVP-LFD254 (antibody, human IgG1, V domains shown)
VH: QVQLVQSGAEVKKPGASVKVSCKASGYTFTAYDMHWVRQAPGQGLEWMGWIDPRSGDTSYKQKFQGRVTMTRDTSISTAYMELHRLRSDDTAVYYCTGVTTWFAYWGQGTLVTVSS
VL: DIVMTQTPLSLPVTLGQPASISCRSSQSLLHSNGNTYLNWYQQTPGQPPRLLIYKISNRFSGVPDRFSGSGAGTDFTLKISRVEAEDVGVYYCMQGTHVPYTFGQGKLEIK
notes: IgG with human IgG1 constant region and human kappa constant region, from transiently transfected CHO cells; also called TR143 Vh & TR119 Vk
Take B7: the “EC50, anoikis assay on RIE-TrkB cells” value in assay [4] was 24 ng/ml and 160 pM. Further, the binding result with TrkA-Fc fusion protein [12] is listed as “no binding (tested: 2 ug/ml)”. Moreover, the binding result in assay [13] is “no binding (tested: 2 ug/ml)”. Further, in assay [7], the Kd was found to be 0.117 nM, the koff was determined as 1.94e-05 s⁻¹ and the kon came to 166000 M⁻¹ s⁻¹.

B8: Fab TR139-2 (Fab, V domains shown)
VH: QVQLVQSGAEVKKPGASVKVSCKASGYTFTAYDMHWVRQAPGQGLEWMGWIDPNSGGTRYAQKFQGRVTMTRDTSISTAYMELSRLTSDDTAVYYCTGVTTWFAYWGQGTLVTVSS
VL: MDVVMTQSPLSLPVTLGQPASISCRSSQSLVHSNGNTYLSWLQQRPGQPPRLLIYKISNRFSGVPDRFSGSGAGTDFTLKISRVEAEDVGVYYCMQGTHEPYTFGQGKLEIK
notes: as for B4
As for B8, in [8], the Kd stood at 15.1 nM, the koff came out at 0.00317 s⁻¹ and the kon is 211000 M⁻¹ s⁻¹. For the same molecule, in [9], the Kd is 14.2 nM, the koff is 0.00334 s⁻¹ and the association rate constant (kon) came out at 235000 M⁻¹ s⁻¹.

B9: Fab TR144-1 (Fab, V domains shown)
VH: QVQLVQSGAEVKKPGASVKVSCKASGYTFTAYDMHWVRQAPGQGLEWMGWIDPRSGDTSYKQKFQGRVTMTRDTSISTAYMELHRLRSDDTAVYYCTGVTTWFAYWGQGTLVTVSS
VL: MDVVMTQSPLSLPVTLGQPASISCRSSQSLVHSNGNTYLNWYQQKPGQPPRLLIYKISNRFSGVPDRFSGSGAGTDFTLKISRVEAEDVGVYYCMQGTHEPYTFGQGKLEIK
notes: as for B4
In the case of B9, in assay [8], the Kd is 31.1 nM, the koff was 0.00392 s⁻¹ and the kon amounted to 126000 M⁻¹ s⁻¹. In assay [9], the Kd amounted to 29.7 nM, the dissociation rate constant (koff) worked out at 0.00366 s⁻¹ and the kon is 123000 M⁻¹ s⁻¹.

(Values after US20110097326A1 (IRM, published 2011).)
